B1: Recombinant mouse leptin (ligand, UniProt P41160 22-167, looked up)
chain: VPIQKVQDDTKTLIKTIVTRINDISHTQSVSAKQRVTGLDFIPGLHPILSLSKMDQTLAVYQQVLTSLPSQNVLQIANDLENLRDLLHLLAFSKSCSLPQTSGLQKPESLDGVLEASLYSTEVVALSRLQGSLQDILQQLDVSPEC
B2: Leptin N-terminal conjugate with poly(ethylene glycol) (LepNPEG5K), 1:1 conjugate (ligand, mouse, UniProt P41160 22-167, looked up)
chain: B1 chain
modifications: one chain of PEG (average molecular mass 5000 Da) on the N-terminal amine (reductive amination)
B3: Leptin N-terminal conjugate with Pluronic P85 (LepNP85), 1:1 conjugate (ligand, mouse, UniProt P41160 22-167, looked up)
chain: B1 chain
modifications: one chain of Pluronic P85 on the N-terminal amine (reductive amination, secondary amine)

Tests used:
[1] = target: leptin receptor (Mus musculus) (UniProt P48356); experiment: SPR; settings: cited from earlier work
Sequence of leptin receptor (Mus musculus) (P48356 22-839): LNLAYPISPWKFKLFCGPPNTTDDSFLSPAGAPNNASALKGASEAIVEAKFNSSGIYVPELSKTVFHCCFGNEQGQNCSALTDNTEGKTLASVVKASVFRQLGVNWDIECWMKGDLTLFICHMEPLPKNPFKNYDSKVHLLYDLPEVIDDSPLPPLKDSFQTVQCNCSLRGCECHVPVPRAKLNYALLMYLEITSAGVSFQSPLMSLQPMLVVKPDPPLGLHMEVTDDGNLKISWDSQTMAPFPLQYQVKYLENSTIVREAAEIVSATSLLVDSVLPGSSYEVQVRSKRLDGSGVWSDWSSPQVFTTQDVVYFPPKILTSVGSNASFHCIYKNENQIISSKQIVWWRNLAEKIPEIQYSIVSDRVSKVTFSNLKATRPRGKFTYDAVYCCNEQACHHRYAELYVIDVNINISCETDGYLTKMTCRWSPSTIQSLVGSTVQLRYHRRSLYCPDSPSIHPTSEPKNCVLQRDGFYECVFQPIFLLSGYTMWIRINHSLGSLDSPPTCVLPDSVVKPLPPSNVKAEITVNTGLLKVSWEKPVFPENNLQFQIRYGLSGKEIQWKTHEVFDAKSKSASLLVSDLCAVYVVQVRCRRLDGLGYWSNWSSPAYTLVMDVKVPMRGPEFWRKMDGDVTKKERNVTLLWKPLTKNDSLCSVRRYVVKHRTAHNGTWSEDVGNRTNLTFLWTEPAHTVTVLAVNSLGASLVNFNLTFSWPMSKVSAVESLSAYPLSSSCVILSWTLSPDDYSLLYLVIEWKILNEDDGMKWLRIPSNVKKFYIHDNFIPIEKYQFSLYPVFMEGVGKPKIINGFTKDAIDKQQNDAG

[2] = target: T1, Recombinant human leptin receptor-Fc chimera (human, UniProt P48357 22-839); experiment: SPR
T1 sequence (looked up): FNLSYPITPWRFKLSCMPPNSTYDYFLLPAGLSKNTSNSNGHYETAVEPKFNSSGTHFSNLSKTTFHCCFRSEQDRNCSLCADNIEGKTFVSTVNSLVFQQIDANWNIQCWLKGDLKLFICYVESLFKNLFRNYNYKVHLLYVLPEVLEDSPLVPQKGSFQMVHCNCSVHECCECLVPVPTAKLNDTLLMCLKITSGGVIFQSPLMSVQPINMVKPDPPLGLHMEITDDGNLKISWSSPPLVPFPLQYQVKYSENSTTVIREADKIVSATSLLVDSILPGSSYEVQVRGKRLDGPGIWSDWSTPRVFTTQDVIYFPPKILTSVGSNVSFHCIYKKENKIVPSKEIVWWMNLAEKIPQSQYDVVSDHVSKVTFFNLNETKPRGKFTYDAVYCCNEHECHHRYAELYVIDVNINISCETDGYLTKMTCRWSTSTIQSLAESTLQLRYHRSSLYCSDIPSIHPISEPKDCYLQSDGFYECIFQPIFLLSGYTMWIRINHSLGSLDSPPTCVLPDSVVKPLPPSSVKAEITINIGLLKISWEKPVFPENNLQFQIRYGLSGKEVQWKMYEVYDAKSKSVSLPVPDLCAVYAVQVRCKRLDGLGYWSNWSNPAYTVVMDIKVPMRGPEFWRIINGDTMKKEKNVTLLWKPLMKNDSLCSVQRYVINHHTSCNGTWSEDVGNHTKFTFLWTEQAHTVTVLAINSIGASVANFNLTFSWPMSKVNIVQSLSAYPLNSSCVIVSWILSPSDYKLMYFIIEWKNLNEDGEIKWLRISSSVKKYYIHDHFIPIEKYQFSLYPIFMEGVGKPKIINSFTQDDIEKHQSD

Molecule | Kd [1] | Kd [2]
leptin (from UniProt P41160) | 0.12 nM | 
B1 |  | 0.089 nM
B2 |  | 0.28 nM
B3 |  | 0.2 nM

From paper PMC5603367 (Journal of controlled release : official journal of the …, 2017)
